According to the NTF2 design screens of Basanta et al. (2020):

assay: protease stability score; higher = more stable; yeast display proteolysis, trypsin and chymotrypsin;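 note: relative to predicted unfolded state with 0 unfolded-like and 1 meaning tenfold more protease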

Sequence	protease stability score
DEEKETAHEIHRILIKAWITGDEDTLNELLDPNVRIDINGVDTHGMEELKRVFEEHKKEIRWKDVRPRHIHVINGQIHSDTDHNGVVNGVTRTRKAHWIIVVIDGKVHSIKFIIH	1.29
DEDFEYALRVAKLFWEAVFTGDEKTLEHLLDPNVRIDINGRHIHGREELIKLFHEIRIHMHEIRIDDIRVQGNYLLVHGHVILEVNINGRTTRIETEVRIEISKVNGRWIIRQSEHT	2.08
SEEEELALKLLRVLWHHLETGDEETLNHLLDPDTRWNVDGVNFHGMRDFVRHFRERLKHARLHSLHVHRFSMINGVMHFDGEVNEIYGDKTERYRVRIELVVVNGRWKELYLHKI	1.55
DEEKEIVENTTRLYWHLMETGNFDRWMKEADPNTRQDVDGKELHGMELVAHRIRELLEKFKGVRFHVEDIKIINGRSHMDIRIIIGDKHIEAHLILLVVDGRLKHVSLIIR	1.99
SEEEKHIIELFEIWLEAIRTGDENLLLKLADPHYRVIIDVGNKHIHRHGWKEFMEWLRHFTREMRIRHLTLRDYRAVNGVFHADTESVEEIGEFELRTRMHIVLVIINGVFHSVRHKIE	1.23
SEEHHDAERAMEEFLKVMNTGNEKLLRDLIDPNVRTEINGQEIIGWKSMHRIMREWGVDNIRVHLRRLEVQGEKLHLEEELNVNGRTSKMEIVALKINGRWVVSEIRFH	2.03
DEEERLWEAAEYFFIHLLQTGDEEMVTKYADPHVRSDVNGVEYHGMNQFVEEWRRLVERIDHLESHHIDRVEIYNGVVTVHLRVHGEVNGKRDTFRVIIFMYKYNGQWRIHSYEFK	1.1
SESHHLAKHVVHLFMHAVSTGDEKLLRELLDPDVRVDINGVELIGMEDFQKWLHEWREHMHDSKVHRVRDYNGVLESDVKVRRVLIVDGVRLEEETHSEVIIVKINGRWHVKHVRYR	1.26
DEFRKDADRALHMFEDKIRTGNWRELDKLLDPHVRFEYGDKIHHGREQFKYFMDRYDHITARDHKIDHVEFQGDYLHMDTTVDGELFIDGKNIRIVNKSKLVLLKVNGRWTMHFLSHD	0.818
SDEEERLERVSELLLHAIETGDWRILAELADPHVRLEIGDKEIHGREIVVDLIRKEYDKYKNMRITNEDFDVQGNKTEWHVNIHIGDKEVRIHIYNVVINGKIRRRHIHIR	1.23
DEEEKHLRDMMEIVIKLFMTGDWDAFHEMADPDVKFQVDVGDKHIHRHGREEVVEELIRLLEHWRVRNIRIHDIKLIGDKLVVEGRWETSYGDKSHDEDVELIVIVVDGKIKKVRIIIR	2.72
RDSEEKDKIFLSIVESAILTGDPETSEKMADPNVRIDFNGKDLVGREDYHRFVKRWLEEARFHKLVIHELRHVDGRMDSHTQEIVDIDGRRYTHDTHIIMLKIDGRWILHSKTVR	0.986
DEEEEILRRFIEEWLYAELTGDFHVLHELFDPNVRIEINGVDKHGMHIVIKELLEFYRRVKNLRVEFELRDEKRFDGVVIIIGVRRISINGQTHEEETILVIVKVNGRWVMKEIWFN	1.64
DEIKDHVEHASRLLLETYETGDEHTLERLVDPHVKLEVNGQEHVGRETTRWMLEFFKNLKIRIEDVRWQGNKIEIHSILHFNGKDLEMIYFAEKVDGRWVIRSVRTT	1.38
DDRYRLVEHMSRHFFENWLTGDFDRLVELADPTVRSHFEYGDKEILNIGMEEHVKMERHWREKMGANHLFLDDVRIQGNKAHIHGQLDVGDKHNRARLELNIVDGRIKEIYIEIR	0.018
GDEEHHATEALERLIHSFETGDEELMTKLVDPHVRFEVNGKLFIGREDVMRWLKERLDRFDHHRVDFKHIRVVGDKVDIHLVLEVDFNGQHFSHDVRVRIIKINGRWRLTHMSIH	2.3
DEDFELAERFLEKWINVSRTGDEKKAHELVDPNVLINIGDKQIHGRERVVEWVSHIRIHHLEIHHFDVQGDKLIIDGRMDGTVNGRRVDHHIRIIISKVNGRWQTKTIDHE	0.665
DEEEDRIMKMLRLIILEIVTGDEEKFRHLFDPDARFIVGNKTYHGWEMWHEEFRHIRITEMELEHYDVINGRAHLHTRLRGKINGREIDTETRLIVVVINGKIHSIELRIH	2.18
SELEHVEEKLLRDLVNAIKTGDEEFFNRLLDPDDRLHEKQGDKTIDFIGREEWKRFLSQIKNLKVEFRDVDLWNGRIHMRVVIIINGREHDLELEYVIVNGRFKQFHVRIR	2.2
SHDEELVERVLKMYKHAIETGDEELLTLLLDPDTRLEIDGVDFHGMDIAIHILFKELLRHGIRTEHMRVEDVKVQGDFVHVDVEVNIDVDGREETERRHLVLWKFNGRWRVKHHHIH	2.35
SERHEILRLITEIWDHLKHTGDEDSLADLFDPHARMIWNGRDIHGWSNLIEAFRKILEFLGIDRIHIENTEMRLQGDKSHNRTDLNVNGKHLDTRVHLDVVDGRIRVTEVRIH	1.06
SEEEEKARRLSELITRSFLTGDEEELEELLDPNARNIYNGVIVHGREEVSRLFHEEWLRYGIDHVRLEDMHIDVQGDKVDFHIIMRSEFNGRVHHVRVEVHIEKVDGRWVMKRLELRFS	0.977
DEEKEEEDLVLEILIHMMRTGDEELLDELLDPNARQIVGDKEFIGRELSHWFATFFKNVKVEIKHFRVINGRIHMHVHIQIGDKRHDMRITARKVNGKWVLEESHIR	1.62
DEEHQSLRHIAEILLESWETGDFERVWKFADPHTRVDFNGREKHGMHHVHEMFHILGIDHIELRHMEVINGRINSDGHVEVNGQRHRMHLTIFVFDGRLTEVRFDYE	2
SEEDKHLLHLMHLFLHWFDTGDEEQFWHYADPHVRMSVNGVHLHGRETVMRQISRTLKEWRVDDRRIHDSHTVNGVVHQDGRVDGEFNGKRDTREYYLIIVIFNGRIHSVEIHIK	1.46

Sequence	protease stability score
SEIEKESEKIWKIWFHNLETGNWREIARLFDPHARWRELVDGREVNIVGREEVVRLLSENSEHLRLDDFRETSVRVIGDFVRSDVEMVGTVDGQHERRRVEVIIVTINGRLHSITITHL	1.15
SEDKEAFHRVMKLLLHAWRTGDEDREKELFDPNVRFIIGDKIIIGREEWLKLLRRIDHLEVDLDIKRLEVIGDKIKAEFRLHEILKIDGVEIHQEHEVRLHLHKINGRWIIERVHVE	0.845
SEEEEMLHHLSERMTRALRTGDWKTLFELLDPNVRYEQGDKELHGREEMVKHIRHAMERVKNIRIEFTHIDTRLIDGRIHVHIDGRDEFNGVRFKKHIIVHIDKIDGKWFTDNFRLIYE	1.15
DEDEKIIQQFLREHTETNDTGDENTFKKQLDPHARTIFNGREYHGREDAYRILKELGWSRFEFHLRHVDIQGEKLHVMGLLRVDGKWLDVEIVANKINGRWVLTEFHIN	0.417
DDEERIWRELLEDLLKALKTGDEHRIQDLLDPHVRLEIGDKEFHGREEVTEWFRRLMEKIKGAVFHIHIHDFRIQGDKLLADTRLIIHIGDKHEESETEMIVLKVNGRWLIDEIRVK	2.59
DEEDELLMKVLTEWFHALRTGDEEKLDELADPNVRIEIGDKELHGMEVWQEYLRRYDHDRQDKVHFRTHEKQGNKLILDVEEDVVIEVNGKRIRTHVRSEIILVKINGRWVFTSIIVH	1.34
DERHEKAERVTRELIKLLITGDEDLLDDLIDPNARIEIGDKVTHGRDKFSREISEMGVDHVELKEIHVYGDKAIIKGKLDINGKRNKFILIMEKINGRWFLRSMRVEDH	1.32
DEERKRSEELMKLEIHVFETGDWEWYREMADPNTRMHIDGKDFHGREEIYKFLHEHHLRFKNIKIHFEHIELQGEYVHNDVIIHVNGVDLIAHIIIVVVNGRVTHSEFQLE	1.17
DDKEQRVEELARLLYKMLLTGDWKTLEHLADPHVRMHQGEYNNVGMETVVEHWRRWYEHIRLDDMKITDLKVYGNKLHTDIRLDGEVNGKHRILESELLLIVVDGKMREIEIRII	1.19
SEEERTQTLAMKIIWDVLLTGDWKELFDNMDPHARMEINGRKFHGREEIIRHLRELHNKLGIDRVESHLHSVHYVDGVIHVDIHLHYNGKDERIEIIAMKYNGRWTLTEVNYREE	2.13
TEMLEEALRFVEQLIKAILTGDESVFRNLVDPNAKNEIDGVEIHGWEFLNVFHKRYDHVTHLHFVLRSVRVYGDKLEMHGVVEIHGVIDGQERNFEVDTEIHVEKINGQWILRSLYVR	1.11
DEDEEASKIFWEIWLHNVRTGDEHAINELVDPHVKMVYGDKTFHGMKMLERLYRELGVKHMEVRLDDERLINGVLTLDTRLIIRVDGRTIDIKTEIIALKVNGKWVVKSITYR	1.1
SEEEKLFKIMMKLLLEQTETGDEHFLKHQFDPHARLEIGEFDLHGWEFMDEHVRHWRYRDMELRRLEFQGNKIETRGLIIGEYNGRRLEISVRMIVLKIDGKWIIKHVHIH	1.42
DSSENFMRHMMEEVWNALVTGDEKLFQRLADPDVRLHFNGVHTHGRENVLTFLRSLDEHLGVKHRSIHDFTIVGDYSHIDTTMEVGDKHWRIHLFLVIIDGRVHHIEIRIE	2.23
DEDDRDMREFWELLFHYLLTGDWESLEKLIDPNARIRVNGKELHGMHYHIRQLTHEVKRFDHIDQRIHHSSVINGKIHLDIHLIINVDGQSFVIHIKMHVDKVDGRWLTRSVHIH	1.09
SELDEEAEEALRITFEMLITGDWEFLNHYVDPDAKLNIGDKEHHGRETVITFVKEISRKLGIKVIRFRHIEVQVFNGKVDIHIHGVVEWNGRREEFRIIIILHKIDGQWHIREMRVHIR	2.4
DEEEETLRWVKELLKHLSKTGDFEKIVNYMDPDVRLNVDGVELVGMHHLERLAKEIRFKIHDLHPRRERIFDGKIQMDVEIDRIIHYGDKTTRERTTIIIIFEKVNGRWLIHTIHVH	1.17
DEDRKVAEEVIRIITHESRTGDWDRISENLDPDARVEVDGRHVHGRERFVEFVLHARIEHSHVHDVSMINGRLKVDTELRGIWNGREIDTQVYIISLKIDGRWYLESIHIS	1.34
DEEEEYHRRVLETITRARLTGDEDLFRKNVDPDVKIEVHVGNFRFHDVGWEHLRRWIEELGFEIHHIEIKHEHVINGVMHQESERDGTFNGVRDRVKVRFIYFIVNGRIKHIRFEVE	0.781
DEDHEDMRKILELLRTAYETGDERVHEHLLDPNTRLHIGEFNNVGWHNVLEFFEQHQKELGVKHIELRLEDFDKQGDFLIIHGRLIVNVNGKRINVHLEVHMHKVNGRWYDRERRVL	0.928
NEDEENMKKLLEDFLESLLTGDFDKLTRLADPHARIVQGDKELHGRDEIHEFWKRTMEHIRITHSYVREIDIINGRLHTDIHWDLQVGDKRYSHRVELILLKIDGKWVLHEVEFR	1.27
TKEEEESRHWSELMFHLEETGDEEILKDLADPHVKIHVNGVHLHGMEKLEEWRRRLGITKFDSHLHDFRVQGEKMHNIVHLHINGQKIDAHIIIIIVDGKITRIIIRIT	0.75
SEEEKILDKLMELLSRLVHTGDEKEWADLMDPDTKLHVGDKTYIGMEKVTEFLHEMRVHHLELHDKRVIGDKARVHTNLRGVIDGRDVNLETHMIITKINGKWVIHSVEVR	1.02
SEDHENIERFLTHFVTAIETGNFNELEKLLDPNAQIEINGQRIHGREWFVDHIRRIKNIRFEIHVEDSEFYNGKAHIRTRLILKYGDKEREHDVVLVIRKINGRWVIEWIIIE	1.54
SEDEHEMRLALEKEIKDWHTGDEDSLRELADPDVRLTVNGKRKHGWEILDVLLKHLRVRSVEIKHLRLQGDKAEMDLRMDGEVGDKRINLITHVIMYKVDGKWIIEEIVVK	1.43
